Experimental data as given in patent US20250163149A1, “ANTI-RAGE ANTIBODY” (Swansea University, priority 2022, published 2025).

Key:
RAGE synthetic peptide = biological target: T1, RAGE synthetic peptide (Homo sapiens, UniProt Q15109); test: Surface plasmon resonance binding kinetics (Biacore T200), synthetic peptide analyte; settings: chimeric antibodies and AB11451
T1 construct: purchased Biorad; host or cells: chemical synthesis
Method: (§1) For on-rate and off-rate screening, Biacore™ T200 system (Cytiva, Uppsala, Sweden) was used to perform SPR analysis with 1×HBS-EP+ buffer (0.01M Hepes, 0.15M NaCl, 0.003M ethylenediaminetetraacetic acid, and 0.05% Surfactant P20, pH 7.4) (BR100669) used as sample and running buffer. The analysis temperature at the sensor chip surface and within the compartment was set to 25° C. Firstly, pH scouting with 10 mM sodium acetate buffer 4.0 (BR-1003-49), 10 mM sodium acetate buffer 4.5 (BR-1003-50), 10 mM sodium acetate buffer 5.0 (BR-1003-51) and 10 mM sodium acetate buffer 5.5 (BR-1003-52) was performed to identify the optimal pH required for ligand (α-RAGE antibodies) immobilization. This was followed by diluting the ligand with the appropriate Acetate buffer to at least 10 μg/mL. The ligand immobilization on the surface Series S Sensor Chip CM5 (29-1496-03, Cytiva) was performed using the Amine Coupling Kit (BR100050, Cytiva) containing 1-Etyhyl-3-(3-dimethylaminopropyl)-carbodiimide hydrochloride (EDC), N-Hydroxysuccinimide (NHS) and 1.0M ethanolamine-HcL PH 8.5 in accordance with the manufacturer's instructions. For each experimental run, the ligand was immobilized in flow cells 2 or 4 while flow cells 1 or 3 were left unmodified. Flow cells 2 and 4 were used as active flow cells while flow cells 1 and 3 were used as reference flow cells. […]

[1] = biological target: T2, RAGE recombinant protein (Human rRAGE) (Homo sapiens, UniProt Q15109); test: Surface plasmon resonance binding kinetics (Biacore T200), recombinant protein analyte; settings: analyte RAGE recombinant protein, or RAGE synthetic peptide, not separated
T2 construct: Human rRAGE=Full-length RAGE recombinant protein from Merck; purchased Merck
Method: as §1, with “cells. Ligand immobilization levels were typically within the range 500-900 RU for the kinetic experiments and injected with a flow rate of 10 μL/min and contact time of 300 s. Analytes (RAGE recombinant protein and synthetic peptides) were injected for 120 s with a flow rate of 30 μL/min and dissociation time of 600 s run in order of increasing concentration over the reference and active flow cells using a multi-cycle kinetic approach with five-seven concentration range. Following each binding cycle, the surface was regenerated with a 30 s injection of 10 mM Glycine-HcL, pH 2.5 regeneration solution (BR-1003-56), removing the bound antibody with a contact time of 30 s, flow rate of 30 μL/min and a stabilization period of Os.” for “cells.”

RAGE protein on SKOV3 = biological target: T3, RAGE protein on SKOV3 (Homo sapiens, UniProt Q15109); test: Immunofluorescent staining of RAGE basal expression on SKOV3 cells; type: cell-based; settings: primary antibody 4 μg/ml
T3 construct: RAGE protein expressed on the extracellular membrane of cancer cells in its native conformation; endogenous in cells; host or cells: SKOV3 (ECACC)
Method: To screen binding of α-RAGE antibodies by immunofluorescence, 1.5×10^4 SKOV3 cells/well (obtained from the European Collection of Authenticated Cell Cultures, ECACC, Public Health England, UK) were seeded in 8-well chamber slides (Ibidi) in 300 μl of stripped medium and cultured for 48 h in a humidified, 5% CO2 in air atmosphere incubator at 37° C. After culture, cells were fixed with 4% paraformaldehyde (Sigma) for 20 minutes, permeabilized with 0.1% Triton X-100 (Sigma) for 10 minutes at 4° C. and blocked with 3% BSA in PBS for 1 h. Primary antibodies diluted at 4 μg/ml in 3% BSA-PBS were incubated overnight at 4° C., followed by 1 h incubation with Alexa-488 secondary antibody. Cells were washed with PBS extensively between all steps, counterstained before imaging with Hoechst (Life Technologies™) and imaged using a LSM710 confocal fluorescence microscopy system (Zeiss, UK).

RAGE = RAGE (Homo sapiens, UniProt Q15109); test: Western blot on protein extracts from human healthy tissues; settings: brain, breast, kidney, liver, lung, ovary, pancreas, spleen and uterus
Chain of RAGE (Q15109 23-404): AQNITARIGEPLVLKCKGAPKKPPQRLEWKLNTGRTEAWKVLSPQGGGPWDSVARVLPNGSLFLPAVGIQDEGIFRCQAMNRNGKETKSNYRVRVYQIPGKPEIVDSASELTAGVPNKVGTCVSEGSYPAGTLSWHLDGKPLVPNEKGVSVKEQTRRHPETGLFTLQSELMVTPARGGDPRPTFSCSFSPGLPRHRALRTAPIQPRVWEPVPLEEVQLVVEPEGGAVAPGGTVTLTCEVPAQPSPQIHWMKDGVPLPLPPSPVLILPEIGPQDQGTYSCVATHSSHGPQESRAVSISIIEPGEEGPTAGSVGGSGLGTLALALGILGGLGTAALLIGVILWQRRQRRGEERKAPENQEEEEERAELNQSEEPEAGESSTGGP

T3 sequence (Q15109 23-404): as above
T2 sequence (Q15109 23-404): as above
T1 sequence (Q15109 39-65 limits assumed): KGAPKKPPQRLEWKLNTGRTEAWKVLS

B1: hHA9: chimeric humanised format of anti-RAGE antibody clone HA9 (antibody, V domains shown)
VH: EVKLVETGGGLVQPGRPMKLSCVASGFTLSDHWMNWVRQSPEKGLEWVAQIRNRPYKFEKYYSDSVKGRFTISRDDSKNSVYLQMNNLRAEDMGIYYCSSYRYGLAYWGQGTLVTVST
VL: DNLLTQSPAILSVSPGERVSFSCRASQTIDTRIHWYQQRKNGSPRLLIRYISESLSGIPSRFSGSGSGTEFTLTINSVESEDIADYYCQQTESWPITFGSGTKLEIK
binding affinity to the new synthetic peptides (RAGE synthetic peptide): the affinity is weak | affinity interaction by SPR (summary statement) [1]: weaker affinity | affinity interaction by SPR (summary statement) ([1]; listed as chimeric-HA9): weaker affinity than AB11451 antibody or the commercial antibodies | immunofluorescent signal (basal RAGE staining) (RAGE protein on SKOV3; compared with other clones and AB11451): highest detection of RAGE basal expression | immunofluorescent signal (basal RAGE staining) (RAGE protein on SKOV3; compared with other clones and AB11451, listed as chimeric HA9): most intense immunofluorescent signal | immunofluorescent signal (basal RAGE staining) (RAGE protein on SKOV3; compared with other clones and AB11451, listed as chimeric-HA9): higher intensity | RAGE expression detected in human healthy tissues (RAGE): absent or very low expression
